From patent publication US20030143158A1 (DYAX, published 2003)
Ends that are not written are not given here. fluorescein = fluorescein label on the lysine side chain

T1: fibrinogen (UniProt P02671 20-629; P02675 31-491; P02679 27-437, limits assumed)
T1 construct: Biotinylated and immobilised through streptavidin for ELISA
T1 sequence (looked up) 1: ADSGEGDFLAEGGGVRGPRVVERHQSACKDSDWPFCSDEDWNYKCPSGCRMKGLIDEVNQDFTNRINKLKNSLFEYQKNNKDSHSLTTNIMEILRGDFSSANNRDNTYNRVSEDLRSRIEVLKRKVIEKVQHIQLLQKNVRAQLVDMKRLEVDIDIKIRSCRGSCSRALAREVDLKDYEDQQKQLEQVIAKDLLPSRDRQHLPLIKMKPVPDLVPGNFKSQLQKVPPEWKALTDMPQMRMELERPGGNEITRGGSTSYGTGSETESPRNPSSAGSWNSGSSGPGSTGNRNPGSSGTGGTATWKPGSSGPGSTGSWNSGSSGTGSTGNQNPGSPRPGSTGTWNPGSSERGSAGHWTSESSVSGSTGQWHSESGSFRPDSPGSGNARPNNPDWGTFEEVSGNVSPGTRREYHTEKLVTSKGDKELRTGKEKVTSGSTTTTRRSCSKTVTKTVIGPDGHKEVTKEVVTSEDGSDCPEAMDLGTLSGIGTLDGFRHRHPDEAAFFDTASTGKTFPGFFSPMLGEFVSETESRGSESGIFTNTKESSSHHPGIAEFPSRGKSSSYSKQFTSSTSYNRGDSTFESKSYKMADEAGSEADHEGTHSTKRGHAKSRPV
T1 sequence (looked up) 2: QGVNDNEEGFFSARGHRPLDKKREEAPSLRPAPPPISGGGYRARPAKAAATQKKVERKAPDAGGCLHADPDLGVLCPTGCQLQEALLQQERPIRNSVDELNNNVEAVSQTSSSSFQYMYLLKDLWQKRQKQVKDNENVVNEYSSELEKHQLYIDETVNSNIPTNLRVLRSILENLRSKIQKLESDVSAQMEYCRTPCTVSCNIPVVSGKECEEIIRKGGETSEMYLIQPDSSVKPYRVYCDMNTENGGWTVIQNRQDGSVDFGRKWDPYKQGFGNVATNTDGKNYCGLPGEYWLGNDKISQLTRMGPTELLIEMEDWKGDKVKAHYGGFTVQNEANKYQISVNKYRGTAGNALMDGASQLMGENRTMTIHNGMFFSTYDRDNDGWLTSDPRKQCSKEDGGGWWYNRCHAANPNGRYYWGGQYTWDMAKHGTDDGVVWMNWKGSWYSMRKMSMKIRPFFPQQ
T1 sequence (looked up) 3: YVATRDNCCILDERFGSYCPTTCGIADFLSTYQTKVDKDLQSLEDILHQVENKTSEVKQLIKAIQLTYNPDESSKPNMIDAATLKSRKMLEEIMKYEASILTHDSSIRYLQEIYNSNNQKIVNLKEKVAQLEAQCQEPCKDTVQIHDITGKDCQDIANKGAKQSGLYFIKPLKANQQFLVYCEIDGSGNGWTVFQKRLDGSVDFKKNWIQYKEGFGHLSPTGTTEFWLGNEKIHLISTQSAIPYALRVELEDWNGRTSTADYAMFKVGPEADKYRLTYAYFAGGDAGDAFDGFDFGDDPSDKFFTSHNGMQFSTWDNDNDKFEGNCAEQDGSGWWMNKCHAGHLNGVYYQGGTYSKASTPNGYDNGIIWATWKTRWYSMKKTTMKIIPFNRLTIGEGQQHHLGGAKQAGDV

T2: fibrin (UniProt P02671 36-629; P02675 45-491; P02679 27-437, limits assumed)
T2 construct: Polymerised fibrin formed on 96-well plates from fibrinogen and thrombin; also called dried fibrin; fibrin target
T2 sequence (looked up) 1: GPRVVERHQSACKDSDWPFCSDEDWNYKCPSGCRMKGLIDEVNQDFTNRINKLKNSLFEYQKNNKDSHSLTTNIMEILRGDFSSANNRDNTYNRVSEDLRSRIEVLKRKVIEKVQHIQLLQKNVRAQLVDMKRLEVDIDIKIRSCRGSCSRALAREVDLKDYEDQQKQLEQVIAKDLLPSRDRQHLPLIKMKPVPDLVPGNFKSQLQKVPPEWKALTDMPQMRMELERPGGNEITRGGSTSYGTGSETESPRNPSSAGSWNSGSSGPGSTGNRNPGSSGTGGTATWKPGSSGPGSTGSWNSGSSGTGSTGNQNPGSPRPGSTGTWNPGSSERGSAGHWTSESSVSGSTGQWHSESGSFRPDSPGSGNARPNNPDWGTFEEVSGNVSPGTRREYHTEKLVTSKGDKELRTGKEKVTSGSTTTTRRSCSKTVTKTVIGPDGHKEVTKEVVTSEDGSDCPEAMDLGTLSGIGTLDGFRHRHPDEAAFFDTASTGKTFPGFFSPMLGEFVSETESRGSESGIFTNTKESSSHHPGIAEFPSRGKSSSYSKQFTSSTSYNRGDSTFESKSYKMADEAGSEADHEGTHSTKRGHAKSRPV
T2 sequence (looked up) 2: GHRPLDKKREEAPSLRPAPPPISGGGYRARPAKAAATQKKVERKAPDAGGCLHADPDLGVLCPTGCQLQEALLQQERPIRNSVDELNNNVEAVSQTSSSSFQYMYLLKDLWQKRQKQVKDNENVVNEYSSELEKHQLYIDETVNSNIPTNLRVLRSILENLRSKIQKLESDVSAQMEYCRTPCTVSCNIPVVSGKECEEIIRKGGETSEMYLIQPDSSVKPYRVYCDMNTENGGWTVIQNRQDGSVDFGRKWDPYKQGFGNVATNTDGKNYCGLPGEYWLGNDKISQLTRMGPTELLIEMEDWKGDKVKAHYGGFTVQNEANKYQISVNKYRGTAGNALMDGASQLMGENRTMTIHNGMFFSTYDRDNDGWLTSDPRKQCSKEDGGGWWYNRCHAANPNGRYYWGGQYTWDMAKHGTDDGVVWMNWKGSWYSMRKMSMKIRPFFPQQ
T2 sequence (looked up) 3: T1 sequence (looked up) 3

B1: synthetic fibrin-binding peptide DX-304 (peptide)
peptide: Ac-WAPCQEEPWLFCFHGGGGK(fluorescein)-NH2
modifications: not fully specified; printed as Ac-WAPCQEEPWLFCFHGGGGK(fluorescein)-NH2; cysteine pairing not given here
B2: phage isolate 002-35-E01 (peptide)
peptide: WELCSDENWLWCWPH
modifications: not fully specified (bridges); cysteine pairing not given here; also: displayed on M13 phage
notes: The two Cys are believed to form a disulfide
B3: synthetic peptide DX-101 (peptide)
peptide: AEGTGSQWECPYGLCWIQAPGK
modifications: not fully specified (bridges); printed as Ala-Glu-Gly-Thr-Gly-Ser-Gln-Trp-Glu-Cys-Pro-Tyr-Gly-Leu-Cys-Trp-Ile-Gln-Ala-Pro-Gly-Lys; cysteine pairing not given here
B4: synthetic fibrin-binding peptide DX-303 (peptide)
peptide: Ac-WQPCPWESWTFCWDPGGGK(fluorescein)-NH2
modifications: not fully specified; printed as Ac-WQPCPWESWTFCWDPGGGK(fluorescein)-NH2; cysteine pairing not given here

Experiments:
fibrinogen = target: T1, fibrinogen; test: phage ELISA on immobilised fibrinogen
Experimental: After five rounds of selection, the eluted phage were propagated and a portion plated to isolate phage plaques arising from individual clones. Ninety such clones were selected randomly, propagated, and tested individually for binding to fibrin in a dried fibrin plate assay. Dried fibrin plates were prepared as described above for the library screening. Phage samples (˜10⁹ phage each) were incubated in the dried fibrin plate wells in binding buffer (50 mM Tris, 150 mM NaCl, 2 mM CaCl₂, 0.05% Tween-20) containing 0.1% HSA. After 1 hour, the plates were washed 5 times with binding buffer. Anti-M13 antibody conjugated to horseradish peroxidase (Pharmacia) was added at 1/5000 dilution in binding buffer to the wells and incubated with the fibrin for 1 hour. The wells were again washed 5 times with binding buffer and the presence of the antibody/phage/fibrin complex was measured with HRP calorimetric reagents (3,3′,5,5′-tetramethylbenzidine (TMB) and […]). A high absorbance at 595 nm (due to oxidized TMB) was indicative of a tight phage/fibrin interaction, and phage clones corresponding to those wells were identified as bearing fibrin-binding moieties.
These fibrin-binding positive clones were subjected to several secondary ELISA assays. These assays followed a similar protocol to that detailed above for the dried fibrin ELISA assay, the only variations being the method of target immobilization and the omission of HSA from binding and wash buffers. A screen against DD(E) acted as a further confirmation of fibrin binding activity. […] Finally, ELISAs to assay binding to immobilized HSA (passively bound to the polystyrene plate) and a target-free microtiter plate were controls to eliminate phage that bound promiscuously or nonspecifically.
The ELISAs were performed as described above.

[1] = target: DD(E), soluble fibrin-derived polypeptide (complex of DD dimer with the central E domain of fibrin) (human) (UniProt P02671); test: fluorescence polarization (anisotropy), fluorescein-labeled peptide with DD(E)
[2] = target: DD(E), soluble fibrin-derived polypeptide (complex of DD dimer with the central E domain of fibrin) (human) (UniProt P02671); test: fluorescence anisotropy (polarization): fluorescein-labeled peptide titrated with DD(E) protein
fibrin = target: T2, fibrin; test: equilibrium binding to dried fibrin plates, free peptide measured by mass spectrometry
Experimental: A fibrinogen solution was prepared at 10 mg/ml (or at twice the concentration of fibrin desired) in TBS buffer (50 mM Tris, 150 mM NaCl, pH 7.4). The fibrinogen solution typically contained ˜17 mM citrate. Subsequently, a solution was prepared containing 2 U/ml thrombin, 20 mM CaCl₂, and 5 mM ε-aminocaproic acid in TBS. The fibrinogen solution and thrombin solution were mixed 1:1 in the wells of a 96-well plate, aliquoting 50 μL of each solution in each well (total volume=100 μL). The plates were evaporated to dryness overnight at 37° C. The polypeptide to be tested, dissolved in water, was added to each well at concentrations between 1-200 μM. […] The plate containing the peptide and (rehydrated) dried fibrin was covered and incubated at 37° C. on a shaker table for 2 hours.
The supernatant in each well was removed by pipette and the concentration of the polypeptide was measured by mass spectrometry. The ion current detected at the mass of the peptide was monitored after injection of a sample into the mass spectrometer. The area-under-the-peak was quantified and compared to standards of known concentration. The concentration of peptide in the supernatant is equal to the concentration of free peptide. The concentration of bound peptide was determined by subtracting the concentration of free peptide from the total (starting) concentration. […]

Binder	binding result (fibrinogen)	further results
WKACPGEDWLFCWGS [phage isolate 002-37-H02]	no binding	
B1		Kd [1]: 400 nM; Kd [2]: 350 nM
WAPCQEEPWLFCFHG [phage isolate 002-37-D02]	no binding	
B2	no binding	
RAPCDYYGTCVEL [phage isolate 002-36-H04]	no binding	
B3		Kd (fibrin): 700 nM
B4		Kd [1]: 500 nM; Kd [2]: 500 nM
WQPCPWESWTFCWDP [phage isolate 002-37-C11]	no binding	
WMMCPMSEWLYCWSA [phage isolate 002-36-A02]	no binding	
